Biological target: SARS-CoV-2 Spike protein (RBD, His & Avi tag) (SARS-CoV-2, wild type, UniProt P0DTC2)
Test: BLI

B1: 80R antibody (antibody, V domains shown)
VH: EVQLVQSGGGVVQPGKSLRLSCAASGFAFSSYAMHWVRQAPGKGLEWVAVISYDGSNKYYADSVKGRFTISRDNSKNTLYLQMNSLRAEDTAVYYCARDRSYYLDYWGQGTLVTVSS
VL: TTLTQSPATLSLSPGERATLSCRASQSVRSNLAWYQQKPGQAPRPLIYDASTRATGIPDRFSGSGSGTDFTLTISRLEPEDFAVYYCQQRSNWPPTFGQGTKVEVK
binding result: no binding (tested: 20 nM and 10 nM)

From publication PMC10069166 (Heliyon, 2023)
